Experimental data taken from paper doi:10.1101/2022.12.30.522300 (bioRxiv, 2022).
Blank lines part the entries; values can stand above or below the molecule they belong to.

How the values were obtained:
[1] = molecular target: RBM17–UHM (RBM17/ΔNΔG), from pETM11 (human); assay: ITC
[2] = molecular target: T1, full-length RBM17, from pETM11 (human, UniProt Q96I25 1-401); assay: NMR titration
T1 sequence (looked up): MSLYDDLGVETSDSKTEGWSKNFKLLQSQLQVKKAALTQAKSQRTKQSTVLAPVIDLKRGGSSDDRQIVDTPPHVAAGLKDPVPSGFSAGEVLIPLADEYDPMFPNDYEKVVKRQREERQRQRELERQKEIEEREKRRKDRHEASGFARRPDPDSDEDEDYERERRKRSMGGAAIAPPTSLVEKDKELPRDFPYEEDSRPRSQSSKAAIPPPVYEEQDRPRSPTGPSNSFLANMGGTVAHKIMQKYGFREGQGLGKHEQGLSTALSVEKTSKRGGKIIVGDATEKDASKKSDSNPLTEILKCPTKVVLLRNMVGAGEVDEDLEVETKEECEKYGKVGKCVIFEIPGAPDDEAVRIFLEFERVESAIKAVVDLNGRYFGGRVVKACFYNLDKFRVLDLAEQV

GST-RBM17 = molecular target: T2, GST-RBM17 (human, UniProt Q96I25 1-401); assay: pull-down
T2 sequence (looked up): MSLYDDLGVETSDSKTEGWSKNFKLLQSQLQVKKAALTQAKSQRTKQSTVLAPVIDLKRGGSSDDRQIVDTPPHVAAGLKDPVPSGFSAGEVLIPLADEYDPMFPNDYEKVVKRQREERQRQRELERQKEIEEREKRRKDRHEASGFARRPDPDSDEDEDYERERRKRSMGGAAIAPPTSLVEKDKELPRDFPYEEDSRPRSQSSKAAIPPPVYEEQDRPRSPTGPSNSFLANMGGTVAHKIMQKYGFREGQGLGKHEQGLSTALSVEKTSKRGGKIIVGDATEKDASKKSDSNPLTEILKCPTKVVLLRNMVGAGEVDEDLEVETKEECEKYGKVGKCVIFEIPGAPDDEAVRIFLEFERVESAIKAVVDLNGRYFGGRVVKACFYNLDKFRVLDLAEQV

- Kd [1]: 34.4 µM
Molecule: SAP30BP/ULM (domain or fragment)

- binding result [2]: binds
B1: full-length SAP30BP, from pETM11 (natural protein, human, UniProt Q9UHR5 1-308, looked up)
chain: MAGKKNVLSSLAVYAEDSEPESDGEAGIEAVGSAAEEKGGLVSDAYGEDDFSRLGGDEDGYEEEEDENSRQSEDDDSETEKPEADDPKDNTEAEKRDPQELVASFSERVRNMSPDEIKIPPEPPGRCSNHLQDKIQKLYERKIKEGMDMNYIIQRKKEFRNPSIYEKLIQFCAIDELGTNYPKDMFDPHGWSEDSYYEALAKAQKIEMDKLEKAKKERTKIEFVTGTKKGTTTNATSTTTTTASTAVADAQKRKSKWDSAIPVTTIAQPTILTTTATLPAVVTVTTSASGSKTTVISAVGTIVKKAKQ

- binding result (GST-RBM17): binds
B2: recombinant SAP30BP (GST tag removed) (natural protein, human, UniProt Q9UHR5 1-308, looked up)
chain: MAGKKNVLSSLAVYAEDSEPESDGEAGIEAVGSAAEEKGGLVSDAYGEDDFSRLGGDEDGYEEEEDENSRQSEDDDSETEKPEADDPKDNTEAEKRDPQELVASFSERVRNMSPDEIKIPPEPPGRCSNHLQDKIQKLYERKIKEGMDMNYIIQRKKEFRNPSIYEKLIQFCAIDELGTNYPKDMFDPHGWSEDSYYEALAKAQKIEMDKLEKAKKERTKIEFVTGTKKGTTTNATSTTTTTASTAVADAQKRKSKWDSAIPVTTIAQPTILTTTATLPAVVTVTTSASGSKTTVISAVGTIVKKAKQ
